Biological target: complement component 3b (C3b) (human) (UniProt P01024)
Experiment: SPR; equilibrium: each FH sample injected at 0.0156-2 uM, in duplicate, over 1500 RUs of C3b amine-coupled on a Biacore CM5 sensor chip; fit to a 1:1 equilibrium model (Biacore software)

Row | Substance | Kd [µM]
1 | FH variant Arg53His (from UniProt P08603 19-1231) (natural protein) | 3.16
2 | FH variant Arg567Gly (from UniProt P08603 19-1231) (natural protein) | 4.21
3 | FH variant Arg175Pro (from UniProt P08603 19-1231) (natural protein) | 6.39
4 | FH variant Arg1210Cys (from UniProt P08603 19-1231) (natural protein) | 1.95
5 | control factor H (FH) (from UniProt P08603 19-1231) (natural protein) | 1.7

— PMC9716232
